Test results: US10941200B2, “TREM2 cleavage modulators and uses thereof” (Deutsches Zentrum Für Neurodegenerative Erkrankungen EV, priority 2016, dated 2021)
Changes are numbered by the printed parent chain. “Also recorded” adds a separate entry of the source.

T1: human TREM2 (Homo sapiens, UniProt Q9NZC2)
T1 construct: HEK293 Flp-In cells either expressing human full-length TREM2 or empty vector; expressed in transfected cells
T1 sequence (Q9NZC2 19-230): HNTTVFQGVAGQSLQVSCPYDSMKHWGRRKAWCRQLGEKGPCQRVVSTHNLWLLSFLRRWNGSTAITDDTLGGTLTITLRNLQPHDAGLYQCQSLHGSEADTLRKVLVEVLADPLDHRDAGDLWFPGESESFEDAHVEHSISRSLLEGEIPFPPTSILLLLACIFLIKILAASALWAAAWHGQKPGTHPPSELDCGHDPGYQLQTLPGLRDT

B1: clone 7A12: rat monoclonal antibody against TREM2 cleavage site peptide; heavy chain variable SEQ ID NO: 25, light chain variable SEQ ID NO: 35 (antibody, V domains shown)
VH: EVKLLESGGGLVQPGGSMRLSCAASGFTFTDFYMNWIRQPAGKAPEWLGLIRNKANGYTTQYNPSVKGRFTISRDNTQNMLYLQMNTLRGEDTATYYCARIGINNGGSLDYWGQGVMVTVSS
VL: DILINQSPASLTVSAGEKVTMSCKSSQSLLYSEKNQDYLAWYQQKPGQSPKLLMYGASYRHTGVPDRFTGSGSGTDFTLTISSVQAEDLADYYCEQTYSYPYTFGAGTKLELK
modifications: Clone 7A12 variable region of the heavy chain; Clone 7A12 variable region of the light chain
B2: clone 21A3: rat monoclonal antibody against TREM2 cleavage site peptide; heavy chain variable SEQ ID NO: 27, light chain variable SEQ ID NO: 37 (antibody, V domains shown)
VH: B1 VH
VL: B1 VL
modifications: Clone 21A3 variable region of the heavy chain; Clone 21A3 variable region of the light chain
B3: clone 8A11: rat monoclonal antibody against TREM2 cleavage site peptide; heavy chain variable SEQ ID NO: 26, light chain variable SEQ ID NO: 36 (antibody, V domains shown)
VH: B1 VH with A55T, N56K, Q61E, P64T, T87S, G90P, I103V
VL: B1 VL with N5I, E17A, K18R, K34N, S49F, M54I, Y59N
modifications: Clone 8A11 variable region of the heavy chain; Clone 8A11 variable region of the light chain
B4: clone 15C5: rat monoclonal antibody against TREM2 cleavage site peptide; heavy chain variable SEQ ID NO: 30, light chain variable SEQ ID NO: 40 (antibody, V domains shown)
VH: B1 VH with N56Y, Q61E, N79D, G90A, N105Y
VL: B1 VL with M21V, K34S, S49F, M54I, D91H
modifications: Clone 15C5 variable region of the heavy chain; Clone 15C5 variable region of the light chain
B5: clone 10C3: rat monoclonal antibody against TREM2 cleavage site peptide; heavy chain variable SEQ ID NO: 28, light chain variable SEQ ID NO: 38 (antibody, V domains shown)
VH: B1 VH with K43E, A44T, A55T, N56K, Q61E, T87S, G90P, I103T
VL: B1 VL with N5I, E17A, K18R, K34N, S49F, M54I, Y59N
modifications: Clone 10C3 variable region of the heavy chain; Clone 10C3 variable region of the light chain
B6: clone 18F9: rat monoclonal antibody against TREM2 cleavage site peptide; heavy chain variable SEQ ID NO: 29, light chain variable SEQ ID NO: 39 (antibody, V domains shown)
VH: B1 VH with A23V, A24V, P40A, A55V, T59R, Q61E, T77I, G90A
VL: B1 VL with K34N, S49F, M54I, Y59N
modifications: Clone 18F9 variable region of the heavy chain; Clone 18F9 variable chain of the light region

What was measured:
human TREM2 [1] = test: MALDI-TOF mass spectrometry analysis of TREM2 ectodomain cleavage (C-terminal fragment) in HEK293 cells; format: cell-based; conditions: C-terminally FLAG-tagged TREM2 in HEK293 cells, FIG. 1B
Protocol: HEK293 Flp-In cells stably expressing WT and H157Y TREM2 were harvested in PBS. Cell pellets were frozen at −20° C. until use. Cells were lysed in lysis buffer (4% DDM, 0.1% N-octylglucoside, 10 mM Tris-HCl, pH 8.0, 5 mM EDTA, and 140 mM NaCl) containing protease inhibitor mix (Sigma-Aldrich) for 20 min on ice. Following a clarifying spin at 13,000 g for 20 min, supernatants were subjected to a second clarifying spin by centrifugation at 100,000 g for 1 h, and incubated with anti-FLAG M2-agarose (Sigma-Aldrich) overnight by rotation at 4° C. Beads were washed four times with IP/MS buffer (0.1% N-octylglucoside, 10 mM Tris-HCl, pH 8.0, 5 mM EDTA, and 140 mM NaCl) and two times with water. Beads were stored at −20° C. until IP/MS analysis.
IP/MS analysis was performed using Voyager DE STR (Applied Biosystems) as described previously). Immunoprecipitated peptides were eluted with TFA/CH3CN/water (1:20:20) saturated with α-cyano-4-hydroxy cinnamic acid. The dissolved samples were dried on a stainless plate and subjected to MALDI-TOF MS analysis.

human TREM2 [2] = target: T1, human TREM2; test: Immunoblotting of mature TREM2 in membrane fractions of HEK cells stably overexpressing wt TREM2; format: cell-based; conditions: for levels of mature TREM2 in the membrane fraction (quantified immunoblots), result in words: antibody 50 μg/mL, 24 hrs, normalized to immature TREM2, FIG. 7C
Protocol: HEK293 Flp-In cells stably overexpressing TREM2 or TREM2-DAP12 cDNA constructs were seeded at a density of 1.5×10^5/cm^2 and medium changed 48 h post seeding. Conditioned medium was collected after 18-20 h, immediately cooled down on ice, centrifuged at 13,000 rpm for 20 min at 4° C. and supernatants frozen at −20° C. until analysis. Supernatants were directly subjected to standard 15% SDS-PAGE. To prepare membrane fractions, cells were washed twice with ice-cold PBS, resuspended in ice-cold hypotonic buffer (0.01 M Tris, pH 7; 1 mM EDTA; 1 mM EGTA), freshly supplemented with protease inhibitor (Sigma) and incubated on ice for 30 min. After snap freezing in liquid
nitrogen and thawing, the disrupted cells were centrifuged at 13,000 rpm for 45 min at 4° C.
The resulting pellet was resuspended in STE lysis buffer (150 mM NaCl, 50 mM Tris-HCl,
pH 7.6, 2 mM EDTA, 1% Triton-X 100), incubated for 20 min on ice and clarified by centrifugation at 13,000 rpm for 30 min at 4° C. Protein concentrations were measured using the BCA method, equal amounts of protein were mixed with Laemmli sample buffer, supplemented with beta mercaptoethanol, separated by SDS-PAGE and transferred onto polyvinylidene difluoride membranes (Hybond P; Amersham Biosciences, Aylesbury, UK). Bound antibodies were visualized by corresponding HRP-conjugated secondary antibodies
using enhanced chemiluminescence technique (Pierce). Quantification of immunoblots was performed on a LAS-4000 image reader and analyzed using the Multi-Gauge V3.0 software (both Fujifilm Life Science).
(§1) 1*10^6-1.5*10^6 cells were seeded in the 6-well format. 24 hours later fresh medium was added to the cells. Antibody clones as generated by Dr. Feederle (Helmholtz Center Munich, Core Facility Monoclonal Antibody Development) were added simultaneously, i.e. for overnight treatment (about 24 hrs), at a final concentration of 50 μg/mL. On the next day, conditioned media and cells were collected and processed as described under “Preparation of conditioned media, cell lysates, and immunoblotting”.
(§2) ADAM10 inhibitor G1254023X (5 μM final concentration) and a control monoclonal antibody, which is specific for the C terminus of human TREM2, were used as positive and negative controls, respectively.

human TREM2 [3] = target: T1, human TREM2; conditions: Kleinberger et al, 2014; cited from earlier work
human TREM2 [4] = target: T1, human TREM2; test: sTREM2 ELISA of conditioned media from HEK293 Flp-In cells stably overexpressing wt TREM2 (ectodomain shedding); format: cell-based; conditions: normalized to immature TREM2; for sTREM2 levels (ELISA), result in words: antibody 50 μg/mL, 24 hrs, FIG. 7B
Protocol: as §1, §2
For quantitation of levels of sTREM2 in cell culture supernatants, an ELISA for human sTREM2 was established using the Meso Scale Discovery SECTOR Imager 2400. Streptavidin-coated 96-well plates were blocked overnight at 4° C. in 0.5% bovine serum albumin (BSA) and 0.05% Tween 20 in PBS (pH 7.4) (blocking buffer). For detection of human sTREM2, plates were shaken for 1 hour at room temperature with biotinylated polyclonal goat anti-human TREM2 capture antibody (0.25 mg/ml; R&D Systems) diluted in blocking buffer. Plates were washed subsequently four times with 0.05% Tween 20 in PBS (washing buffer) and incubated for 2 hours at room temperature with samples diluted 1:4 in 0.25% BSA and 0.05% Tween 20 in PBS (pH 7.4) (assay buffer) supplemented with protease inhibitors (Sigma). Recombinant human TREM2 protein (Holzel Diagnostika) was diluted in assay buffer in a two-fold serial dilution and used for the standard curve (concentration range, 4000 to […]). Plates were washed three times for 5 min with washing buffer before incubation for 1 hour at room temperature with mouse monoclonal anti-TREM2 antibody (1 mg/ml; Santa Cruz Biotechnology; B-3) diluted in blocking buffer. After three additional washing steps, plates were incubated with a SULFO-TAG-labeled anti-mouse secondary antibody (1:1000; Meso Scale Discovery) and incubated for 1 hour in the dark. Last, plates were washed three times with washing buffer followed by two washing steps in PBS and developed by adding Meso Scale Discovery Read buffer. The light emission at 620 nm after electrochemical stimulation was measured using the Meso Scale Discovery SECTOR Imager 2400 reader. To quantify the levels of sTREM2 secreted from HEK293 Flp-In cells, conditioned media from biological replicates were analyzed in duplicates. The sTREM2 standard curves were generated using the MasterPlex ReaderFit software (MiraiBio Group, Hitachi Solutions America) through a five-parameter logistic fit. Levels of sTREM2 were subsequently normalized to levels of immature TREM2 as quantified from Western Blots.

Molecule	levels of mature TREM2 in the membrane fraction (quantified immunoblots), result in words (human TREM2 [2])	sTREM2 levels (ELISA), result in words (human TREM2 [4])	also measured
CNC(=O)[C@H](Cc1c[nH]c2ccccc12)NC(=O)[C@@H](CC(=O)NO)CC(C)C [GM]	–	–	TREM2 C-terminal fragment cleavage peak in MALDI-TOF mass spectra upon ADAM inhibition (human TREM2 [1]): no identified peak; also recorded: did not show any peak
CNC(=O)[C@@H](NC(=O)[C@H](CCCc1ccccc1)[C@H](C)N(O)C=O)C(C)(C)C [G1254023X]	–	–	levels of mature TREM2, result in words (human TREM2 [2]; ADAM10 inhibitor 5 μM, positive control): increased levels of mature TREM2; inhibition of TREM2 cleavage (literature) (human TREM2 [3]): strongly inhibit cleavage; TREM2 C-terminal fragment cleavage peak in MALDI-TOF mass spectra upon ADAM inhibition (human TREM2 [1]; listed as GI): no identified peak; also recorded: did not show any peak; decrease in shedding (sTREM2 ELISA) (human TREM2 [4]; ADAM10 inhibitor 5 μM, about 24 hrs, positive control): about 60%
B1	increased levels of TREM2 in the membrane fraction	slight trend toward reduced sTREM2 levels	–
B2	–	slight trend toward reduced sTREM2 levels	–
B3	increased levels of TREM2 in the membrane fraction	–	–
B4	–	slight trend toward reduced sTREM2 levels	–
B5	increased levels of TREM2 in the membrane fraction	slight trend toward reduced sTREM2 levels	–
B6	–	slight trend toward reduced sTREM2 levels	–
